# Patent publication US6939679 (RIKEN, dated 2005)
# T1: Mus 16-3-3 epsilon (mouse, UniProt P62259 1-255)
# T1 construct: VP16 fusion as in the yeast two-hybrid screen; also called 14-3-3 E; 14-3-3 epsilon
# T1 sequence: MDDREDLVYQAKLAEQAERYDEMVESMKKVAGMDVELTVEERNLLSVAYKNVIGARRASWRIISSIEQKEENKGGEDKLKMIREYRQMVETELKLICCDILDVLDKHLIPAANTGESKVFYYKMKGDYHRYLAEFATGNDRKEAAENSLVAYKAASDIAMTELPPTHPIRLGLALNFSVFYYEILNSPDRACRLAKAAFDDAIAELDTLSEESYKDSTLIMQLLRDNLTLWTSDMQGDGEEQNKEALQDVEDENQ
# B1: NADE-lexA fusion protein (other)
# chain: MANVHQENEEMEQPLQNGQEDRPVGGGEGHQPAANNNNNNHNHNHNHHRRGQARRLAPNFRWAIPNRQMNDGLGGDGDDMEMFMEEMREIRRKLRELQLRNCLRILMGELSNHHDHHDEFCLMP
# notes: range 1-124; Bait of the yeast two-hybrid screen; also called pBTM116-NADE; lexA-X fusion protein
# Biological target: T1, Mus 16-3-3 epsilon
# Experiment: yeast two-hybrid, lexA-NADE bait against VP16 mouse embryo cDNA library; His selection, beta-gal assay and mating test
binder,measurement,value
B1,binding result,binds
